Read-outs that look alike come from different tables or passages of the source. No end group written: not given here.

The target of experiment [1] is T1, HLA-DR1 (DR1) (Homo sapiens, UniProt P01903+P01911, A100R/D57E/F55L/F60I/F76Y/I96L/L162R/M171V/P40L/Q125E/R42F/V115G/Y59C). The experiment can be described thus: Fluorescent peptide association to soluble DR1 (spin-column separation, fluorescence read-out). It counts as binding.
In experiment [2] the target is T1, HLA-DR1 (DR1). The experiment can be described thus: Dissociation of fluorescent peptide/DR1 complexes. It counts as binding. The conditions noted are these: for DM sensitivity of DR1/peptide complex (dissociation in the presence of DM): 10 hours.
Experiment [3] concerns Mags.DO5 monoclonal antibody. In words: SPR binding to immobilized Mags.DO5 antibody surface. The method, then:
Purified DM/DO complexes were further evaluated by binding to anti-HA and anti-His antibody immobilized chip surfaces using BIAcore Surface Plasmon Resonance (SPR) instrument (Fig. 1C and D). […] To ensure that the observed binding was due to binding of DM/DO to Mags.DO5 mAb, we preincubated DM/DO complexes with soluble Mags.DO5 prior to injecting it over Mags.DO5 immobilized surface.
(In general: Surface plasmon resonance follows binding to a sensor surface in real time, without labels.)

Experiment [4] deals with HLA-DO (DO). The experiment can be described thus: SPR binding to DO captured on anti-His antibody surface. Set-up: species or system human. The following applies: soluble DM 4 µM injected over DO captured by anti-His antibody; pH 5.5, 27°C.
Experiment [5] deals with soluble HLA-DR1 (human).
Experiment [6] has as its target recombinant soluble HLA-DO (human) (UniProt P06340). In words: SPR; DO (Ni-NTA purified) captured on anti-His antibody CM5 chip; analyte 4 µM; citrate-phosphate pH 5.5, 150 mM NaCl, 0.005% Tween-20; 27°C, 5–10 µL/min.
Experiment [7] deals with co-expressed DM/DO complex (human) (UniProt P06340). The experiment can be described thus: SPR.
The subject of experiment [8] is HLA-DM (DM). The conditions noted are these: DO solution 5 µM over DM captured by anti-FLAG antibody; pH 5.5, 27°C.
In experiment [9] the target is soluble HLA-DR1 (human). The experiment can be described thus: fluorescent peptide association kinetics (Sephadex G-50 spin column, fluorescence); as a1 with 1 µM DM and 4 µM DO added.
The target in experiment [10] is soluble HLA-DR1 (human). The experiment can be described thus: fluorescent peptide association kinetics (Sephadex G-50 spin column, fluorescence); DR1 or DR1βG86Y 1 µM with fluorescent peptide 30 µM, no accessory molecules; 37°C, citrate-phosphate buffer pH 5.0; up to 10 h; unbound peptide removed on G-50 spin columns.
Experiment [11] deals with soluble HLA-DR1 (human). The experiment can be described thus: fluorescent peptide association kinetics (Sephadex G-50 spin column, fluorescence); as a1 with 1 µM DM added.
The target of experiment [12] is soluble HLA-DR1 (human). In words: fluorescent peptide association kinetics (Sephadex G-50 spin column, fluorescence); as a1 with 4 µM DO added.

In the case of “CAGFKGEQGPKGEP [CII(259–273), derived from Type II Collagen peptide used to induce arthritis in mice models]”, the “Observed initial binding rate, DR1 alone” value in [1] (DR1 1 µM, fluorescent peptide 30 µM, 37°C, Citrate-Phosphate buffer pH 5.0, slope of linear fit of early data points (~1 hour), no accessory molecules) is 500 Arbitrary Fluorescence Units min^−1. Besides, the “Observed initial binding rate, + DM and DO” value in experiment [1] (DR1 1 µM, peptide 30 µM, DM 1 µM and DO 4 µM, 37°C, pH 5.0, initial rate over 1 hour) is given as 1002 Arbitrary Fluorescence Units min^−1. In addition, the “Observed initial binding rate, + DM” value in experiment [1] (DR1 1 µM, peptide 30 µM, DM 1 µM, 37°C, pH 5.0, initial rate over 1 hour) is recorded as 1593 Arbitrary Fluorescence Units min^−1. Moreover, in experiment [1] (DR1 1 µM, peptide 30 µM, DO 4 µM, 37°C, pH 5.0, initial rate over 1 hour), the “Observed initial binding rate, + DO” value is on record as 137 Arbitrary Fluorescence Units min^−1. Further, the “Effect of DO on peptide binding to peptide-receptive DR1 (DR-receptive)” value in [1] (DR1 pre-incubated with unlabeled HA(anchorless) for three days, no DM) was “reduced”. The “Effect of DO (or DM+DO) on dissociation of peptide from DR1” value in experiment [2] (DO 4 µM, with or without DM 1 µM, 10 hour kinetic experiment, pH 5.0, 37°C) is “no effect”. Besides, the “DM sensitivity of DR1/peptide complex (dissociation in the presence of DM)” value in [2] (complexes formed over 3 days at 37°C, DM 1 µM, competing HA(306–318) 50 µM, pH 5.0, 37°C) is given as “DM-sensitivity”.

In the case of “DM/DO: co-expressed soluble DM/DO complex purified by Ni-NTA or Mags.DO5”, the “SPR binding to Mags.DO5 mAb immobilized surface after preincubation with soluble Mags.DO5” value in experiment [3] (DM/DO preincubated with soluble Mags.DO5 prior to injection) is on record as “about 100 RU”. Moreover, the “SPR binding to Mags.DO5 mAb immobilized surface” value in [3] (Ni-NTA purified DM/DO complexes, pH 5.5 running buffer, 27°C) was “approximately 600 RU”.

Regarding “DM: soluble HLA-DM purified on M2 FLAG affinity column”, the “SPR binding of DM to captured DO” value in [4] was 490 RU.

Consider H5N1-HA1(259–274) peptide, for which, in experiment [5], the observed initial binding rate (+ DM and DO) (Arbitrary Fluorescence Units min^-1) is 2200; the observed initial binding rate (+ DM) (Arbitrary Fluorescence Units min^-1) was 665; the observed initial binding rate (+ DO) (Arbitrary Fluorescence Units min^-1) was 257.

In experiment [5], HA(306–318) peptide registered an observed initial binding rate (+ DM and DO) (Arbitrary Fluorescence Units min^-1) of 1780; an observed initial binding rate (+ DM) (Arbitrary Fluorescence Units min^-1) of 463; an observed initial binding rate (+ DO) (Arbitrary Fluorescence Units min^-1) of 523.

For “HA(306–318): derived from Texas 77 flu strain HA protein peptide; immunodominant HLA-DR1 binding peptide (CPKYVKQNTLKLAT)”, in experiment [1], the “Effect of DO on peptide binding to peptide-receptive DR1 (DR-receptive)” value is “enhanced” and the “Enhancement of initial binding rate by DO compared to DR1 alone” value was 3–4 folds. Also, in experiment [1] (pH 5), the “Effect of DO on maximum binding of peptide to DR1” value is “increasing the binding maxima”; the “Observed initial binding rate, + DM” value is 463 Arbitrary Fluorescence Units min^−1; the “Observed initial binding rate, + DM and DO” value is recorded as 1779 Arbitrary Fluorescence Units min^−1; the “Observed initial binding rate, + DO” value is listed as 523 Arbitrary Fluorescence Units min^−1. Besides, in [1] (pH 5), the “Observed initial binding rate, DR1 alone” value is given as 132 Arbitrary Fluorescence Units min^−1. Moreover, the “Effect of DO (or DM+DO) on dissociation of peptide from DR1” value in experiment [2] (pH 5) is on record as “did not affect”. In addition, in [2] (pH 5.0, 37°C), the “DM sensitivity of DR1/peptide complex (dissociation in the presence of DM)” value is “DM-resistant”.

As for “mutant DR1, DR1βG86Y (from UniProt P01903 26-216) (receptor)”, the response at 4 µM in experiment [6] came out at 100 RU.

Molecule “soluble HLA-DR1 (from UniProt P01903 26-216) (receptor)” registered an SPR binding response in [7] of 337 RU.

B1: DO: recombinant soluble HLA-DO heterodimer with leucine zipper, His- and HA-tags, expressed in Hi5 insect cells (protein)
chain 1: TKADHMGSYGPAFYQSYGASGQFTHEFDEEQLFSVDLKKSEAVWRLPEFGDFARFDPQGGLAGIAAIKAHLDILVERSNRSRAINVPPRVTVLPKSRVELGQPNILICIVDNIFPPVINITWLRNGQTVTEGVAQTSFYSQPDHLFRKFHYLPFVPSAEDVYDCQVEHWGLDAPLLRHWELQVPIPPPDAME
chain 2: TDSPEDFVIQAKADCYFTNGTEKVQFVVRFIFNLEEYVRFDSDVGMFVALTKLGQPDAEQWNSRLDLLERSRQAVDGVCRHNYRLGAPFTVGRKVQPEVTVYPERTPLLHQHNLLHCSVTGFYPGDIKIKWFLNGQEERAGVMSTGPIRNGDWTFQTVVMLEMTPELGHVYTCLVDHSSLLSPVSVEWRAQSEYSWRK
modifications: left off: leucine zipper (acidic or basic chain, which not stated; flanked by spacers), C-terminal, state not stated | His tag, C-terminal, kept | leucine zipper (acidic or basic chain, which not stat
On to B1, for which the “SPR maximum binding of DO to immobilized DM” value in experiment [8] was determined as 500 RU.

In experiment [9], fluorescein-CAGFKGEQGPKGEP [CII(259–273) peptide] gave an observed initial binding rate (+ DM and DO) (Arbitrary Fluorescence Units min^-1) of 1000. Also, the observed initial binding rate (Arbitrary Fluorescence Units min^-1) in [10] worked out at 500. In [11], this molecule registered an observed initial binding rate (+ DM) (Arbitrary Fluorescence Units min^-1) of 1590. The molecule further showed an observed initial binding rate (+ DO) (Arbitrary Fluorescence Units min^-1) in experiment [12] of 137.

Source of the values: paper PMC3738515, “HLA-DO as the Optimizer of Epitope Selection for MHC Class II Antigen Presentation” (PLoS ONE, 2013).
